Non-standard residues stand in square brackets, D forms with d. No end group written: not given here. Ala(4-thiazolyl) = N[C@@H](Cc1cscn1)C(=O)O; 1Nal = N[C@@H](Cc1cccc2ccccc12)C(=O)O; Phg = N[C@H](C(=O)O)c1ccccc1; Nle = CCCC[C@H](N)C(=O)O
B1: SEQ ID NO: 15 (peptide)
peptide: [Ala(4-thiazolyl)]SQGTFTSDLSKQLESRRAQDFIEWLLATGPESGAPPPS-OH
modifications: N-terminus assumed
SMILES: CC[C@H](C)[C@H](NC(=O)[C@H](Cc1ccccc1)NC(=O)[C@H](CC(=O)O)NC(=O)[C@H](CCC(N)=O)NC(=O)[C@H](C)NC(=O)[C@H](CCCNC(=N)N)NC(=O)[C@H](CCCNC(=N)N)NC(=O)[C@H](CO)NC(=O)[C@H](CCC(=O)O)NC(=O)[C@H](CC(C)C)NC(=O)[C@H](CCC(N)=O)NC(=O)[C@H](CCCCN)NC(=O)[C@H](CO)NC(=O)[C@H](CC(C)C)NC(=O)[C@H](CC(=O)O)NC(=O)[C@H](CO)NC(=O)[C@@H](NC(=O)[C@H](Cc1ccccc1)NC(=O)[C@@H](NC(=O)CNC(=O)[C@H](CCC(N)=O)NC(=O)[C@H](CO)NC(=O)[C@@H](N)Cc1cscn1)[C@@H](C)O)[C@@H](C)O)C(=O)N[C@@H](CCC(=O)O)C(=O)N[C@@H](Cc1c[nH]c2ccccc12)C(=O)N[C@@H](CC(C)C)C(=O)N[C@@H](CC(C)C)C(=O)N[C@@H](C)C(=O)N[C@H](C(=O)NCC(=O)N1CCC[C@H]1C(=O)N[C@@H](CCC(=O)O)C(=O)N[C@@H](CO)C(=O)NCC(=O)N[C@@H](C)C(=O)N1CCC[C@H]1C(=O)N1CCC[C@H]1C(=O)N1CCC[C@H]1C(=O)N[C@@H](CO)C(=O)O)[C@@H](C)O
B2: SEQ ID NO: 10 (peptide)
peptide: [Ala(4-thiazolyl)]SQGTFTSD[Phg]SKQLESRRAQEFIEWLLATGPESGAPPPS-OH
modifications: N-terminus assumed
SMILES: CC[C@H](C)[C@H](NC(=O)[C@H](Cc1ccccc1)NC(=O)[C@H](CCC(=O)O)NC(=O)[C@H](CCC(N)=O)NC(=O)[C@H](C)NC(=O)[C@H](CCCNC(=N)N)NC(=O)[C@H](CCCNC(=N)N)NC(=O)[C@H](CO)NC(=O)[C@H](CCC(=O)O)NC(=O)[C@H](CC(C)C)NC(=O)[C@H](CCC(N)=O)NC(=O)[C@H](CCCCN)NC(=O)[C@H](CO)NC(=O)[C@@H](NC(=O)[C@H](CC(=O)O)NC(=O)[C@H](CO)NC(=O)[C@@H](NC(=O)[C@H](Cc1ccccc1)NC(=O)[C@@H](NC(=O)CNC(=O)[C@H](CCC(N)=O)NC(=O)[C@H](CO)NC(=O)[C@@H](N)Cc1cscn1)[C@@H](C)O)[C@@H](C)O)c1ccccc1)C(=O)N[C@@H](CCC(=O)O)C(=O)N[C@@H](Cc1c[nH]c2ccccc12)C(=O)N[C@@H](CC(C)C)C(=O)N[C@@H](CC(C)C)C(=O)N[C@@H](C)C(=O)N[C@H](C(=O)NCC(=O)N1CCC[C@H]1C(=O)N[C@@H](CCC(=O)O)C(=O)N[C@@H](CO)C(=O)NCC(=O)N[C@@H](C)C(=O)N1CCC[C@H]1C(=O)N1CCC[C@H]1C(=O)N1CCC[C@H]1C(=O)N[C@@H](CO)C(=O)O)[C@@H](C)O
B3: SEQ ID NO: 16 (peptide)
peptide: [Ala(4-thiazolyl)]SQGTFTSDLSKQ[Nle]ESRRAQEFIEWLLATGPESGAPPPS-OH
modifications: N-terminus assumed
SMILES: CCCC[C@H](NC(=O)[C@H](CCC(N)=O)NC(=O)[C@H](CCCCN)NC(=O)[C@H](CO)NC(=O)[C@H](CC(C)C)NC(=O)[C@H](CC(=O)O)NC(=O)[C@H](CO)NC(=O)[C@@H](NC(=O)[C@H](Cc1ccccc1)NC(=O)[C@@H](NC(=O)CNC(=O)[C@H](CCC(N)=O)NC(=O)[C@H](CO)NC(=O)[C@@H](N)Cc1cscn1)[C@@H](C)O)[C@@H](C)O)C(=O)N[C@@H](CCC(=O)O)C(=O)N[C@@H](CO)C(=O)N[C@@H](CCCNC(=N)N)C(=O)N[C@@H](CCCNC(=N)N)C(=O)N[C@@H](C)C(=O)N[C@@H](CCC(N)=O)C(=O)N[C@@H](CCC(=O)O)C(=O)N[C@@H](Cc1ccccc1)C(=O)N[C@H](C(=O)N[C@@H](CCC(=O)O)C(=O)N[C@@H](Cc1c[nH]c2ccccc12)C(=O)N[C@@H](CC(C)C)C(=O)N[C@@H](CC(C)C)C(=O)N[C@@H](C)C(=O)N[C@H](C(=O)NCC(=O)N1CCC[C@H]1C(=O)N[C@@H](CCC(=O)O)C(=O)N[C@@H](CO)C(=O)NCC(=O)N[C@@H](C)C(=O)N1CCC[C@H]1C(=O)N1CCC[C@H]1C(=O)N1CCC[C@H]1C(=O)N[C@@H](CO)C(=O)O)[C@@H](C)O)[C@@H](C)CC
B4: SEQ ID NO: 12 (peptide)
peptide: [Ala(4-thiazolyl)]SQGTFTSDLSKQLESRRAQEFIEWLLATGPESGAPPPS-OH
modifications: N-terminus assumed
SMILES: CC[C@H](C)[C@H](NC(=O)[C@H](Cc1ccccc1)NC(=O)[C@H](CCC(=O)O)NC(=O)[C@H](CCC(N)=O)NC(=O)[C@H](C)NC(=O)[C@H](CCCNC(=N)N)NC(=O)[C@H](CCCNC(=N)N)NC(=O)[C@H](CO)NC(=O)[C@H](CCC(=O)O)NC(=O)[C@H](CC(C)C)NC(=O)[C@H](CCC(N)=O)NC(=O)[C@H](CCCCN)NC(=O)[C@H](CO)NC(=O)[C@H](CC(C)C)NC(=O)[C@H](CC(=O)O)NC(=O)[C@H](CO)NC(=O)[C@@H](NC(=O)[C@H](Cc1ccccc1)NC(=O)[C@@H](NC(=O)CNC(=O)[C@H](CCC(N)=O)NC(=O)[C@H](CO)NC(=O)[C@@H](N)Cc1cscn1)[C@@H](C)O)[C@@H](C)O)C(=O)N[C@@H](CCC(=O)O)C(=O)N[C@@H](Cc1c[nH]c2ccccc12)C(=O)N[C@@H](CC(C)C)C(=O)N[C@@H](CC(C)C)C(=O)N[C@@H](C)C(=O)N[C@H](C(=O)NCC(=O)N1CCC[C@H]1C(=O)N[C@@H](CCC(=O)O)C(=O)N[C@@H](CO)C(=O)NCC(=O)N[C@@H](C)C(=O)N1CCC[C@H]1C(=O)N1CCC[C@H]1C(=O)N1CCC[C@H]1C(=O)N[C@@H](CO)C(=O)O)[C@@H](C)O
B5: SEQ ID NO: 11 (peptide)
peptide: [Ala(4-thiazolyl)]SQGTFTSD[1Nal]SKQLESRRAQEFIEWLLATGPESGAPPPS-OH
modifications: N-terminus assumed
SMILES: CC[C@H](C)[C@H](NC(=O)[C@H](Cc1ccccc1)NC(=O)[C@H](CCC(=O)O)NC(=O)[C@H](CCC(N)=O)NC(=O)[C@H](C)NC(=O)[C@H](CCCNC(=N)N)NC(=O)[C@H](CCCNC(=N)N)NC(=O)[C@H](CO)NC(=O)[C@H](CCC(=O)O)NC(=O)[C@H](CC(C)C)NC(=O)[C@H](CCC(N)=O)NC(=O)[C@H](CCCCN)NC(=O)[C@H](CO)NC(=O)[C@H](Cc1cccc2ccccc12)NC(=O)[C@H](CC(=O)O)NC(=O)[C@H](CO)NC(=O)[C@@H](NC(=O)[C@H](Cc1ccccc1)NC(=O)[C@@H](NC(=O)CNC(=O)[C@H](CCC(N)=O)NC(=O)[C@H](CO)NC(=O)[C@@H](N)Cc1cscn1)[C@@H](C)O)[C@@H](C)O)C(=O)N[C@@H](CCC(=O)O)C(=O)N[C@@H](Cc1c[nH]c2ccccc12)C(=O)N[C@@H](CC(C)C)C(=O)N[C@@H](CC(C)C)C(=O)N[C@@H](C)C(=O)N[C@H](C(=O)NCC(=O)N1CCC[C@H]1C(=O)N[C@@H](CCC(=O)O)C(=O)N[C@@H](CO)C(=O)NCC(=O)N[C@@H](C)C(=O)N1CCC[C@H]1C(=O)N1CCC[C@H]1C(=O)N1CCC[C@H]1C(=O)N[C@@H](CO)C(=O)O)[C@@H](C)O
B6: SEQ ID NO: 3 (peptide)
peptide: [Ala(4-thiazolyl)]SQGTFTSDLSKQ[Nle]ESRRAQDFIEWLLATGPESGAPPPS-OH
modifications: N-terminus assumed
SMILES: CCCC[C@H](NC(=O)[C@H](CCC(N)=O)NC(=O)[C@H](CCCCN)NC(=O)[C@H](CO)NC(=O)[C@H](CC(C)C)NC(=O)[C@H](CC(=O)O)NC(=O)[C@H](CO)NC(=O)[C@@H](NC(=O)[C@H](Cc1ccccc1)NC(=O)[C@@H](NC(=O)CNC(=O)[C@H](CCC(N)=O)NC(=O)[C@H](CO)NC(=O)[C@@H](N)Cc1cscn1)[C@@H](C)O)[C@@H](C)O)C(=O)N[C@@H](CCC(=O)O)C(=O)N[C@@H](CO)C(=O)N[C@@H](CCCNC(=N)N)C(=O)N[C@@H](CCCNC(=N)N)C(=O)N[C@@H](C)C(=O)N[C@@H](CCC(N)=O)C(=O)N[C@@H](CC(=O)O)C(=O)N[C@@H](Cc1ccccc1)C(=O)N[C@H](C(=O)N[C@@H](CCC(=O)O)C(=O)N[C@@H](Cc1c[nH]c2ccccc12)C(=O)N[C@@H](CC(C)C)C(=O)N[C@@H](CC(C)C)C(=O)N[C@@H](C)C(=O)N[C@H](C(=O)NCC(=O)N1CCC[C@H]1C(=O)N[C@@H](CCC(=O)O)C(=O)N[C@@H](CO)C(=O)NCC(=O)N[C@@H](C)C(=O)N1CCC[C@H]1C(=O)N1CCC[C@H]1C(=O)N1CCC[C@H]1C(=O)N[C@@H](CO)C(=O)O)[C@@H](C)O)[C@@H](C)CC

molecular target: T1, human GLP-1 receptor (human, UniProt P43220 24-463); test: cell-based or functional assay

Row | Binder | EC50 hGLP-1 R [pM], cAMP formation
1 | B1 | 34500 pM
2 | B2 | 45000 pM
3 | B3 | 19700 pM
4 | B4 | 20000 pM
5 | B5 | 11700 pM
6 | B6 | 44300 pM

molecular target: T2, human glucagon receptor (human, UniProt P47871 26-477); test: cell-based or functional assay
T2 sequence (P47871 26-477): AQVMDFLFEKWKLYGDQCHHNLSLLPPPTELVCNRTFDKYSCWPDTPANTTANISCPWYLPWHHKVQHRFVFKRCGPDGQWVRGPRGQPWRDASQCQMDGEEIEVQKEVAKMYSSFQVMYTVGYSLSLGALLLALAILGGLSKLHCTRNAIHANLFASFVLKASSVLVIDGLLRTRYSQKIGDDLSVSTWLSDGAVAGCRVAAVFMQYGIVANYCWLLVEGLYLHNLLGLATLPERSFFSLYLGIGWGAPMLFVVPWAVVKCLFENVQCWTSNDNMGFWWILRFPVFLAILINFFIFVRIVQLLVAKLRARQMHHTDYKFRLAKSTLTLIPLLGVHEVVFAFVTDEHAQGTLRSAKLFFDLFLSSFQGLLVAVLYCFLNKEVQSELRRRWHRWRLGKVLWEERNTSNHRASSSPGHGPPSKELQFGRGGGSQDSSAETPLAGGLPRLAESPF

Row | Binder | EC50 hGLUC R [pM], cAMP formation
7 | B1 | 2.2 pM
8 | B2 | 6 pM
9 | B3 | 0.9 pM
10 | B4 | 1 pM
11 | B5 | 0.9 pM
12 | B6 | 1.8 pM

molecular target: T1, human GLP-1 receptor; test: cell-based or functional assay; remark: another data set of the same source

Row | Binder | EC50 hGLP-1R, cAMP formation
13 | B1 | 34.5 nM
14 | B2 | 45 nM
15 | B3 | 19.7 nM
16 | B4 | 20 nM
17 | B5 | 11.7 nM
18 | B6 | 44.3 nM

molecular target: T2, human glucagon receptor; test: cell-based or functional assay; remark: another data set of the same source

Row | Binder | EC50 hGlucagon-R, cAMP formation
19 | B1 | 0.0022 nM
20 | B2 | 0.006 nM
21 | B3 | 0.0009 nM
22 | B4 | 0.001 nM
23 | B5 | 0.0009 nM
24 | B6 | 0.0018 nM
